Like-named read-outs stand apart in the source and are kept apart here.
How the values were obtained:
Collagen type IV (CIV) [1] = assay: cell-based or functional assay
[2] = target: Mouse laminin (isolated from the EHS-sarcoma) (mouse) (UniProt P19137); assay: cell-based or functional assay
[3] = target: Bovine serum albumin (BSA) (bovine) (UniProt P02769); assay: cell-based or functional assay
Collagen type IV (CIV) [4] = assay: cell-based or functional assay; remark: listed apart in the source
[5] = target: Ace of E. faecalis strain OG1RF (native; on 46°C grown cells and in mutanolysin extracts) (Enterococcus faecalis strain OG1RF); assay: cell-based or functional assay
[6] = target: Ace of E. faecalis strain MC02152 (native; on cells and in mutanolysin extracts) (Enterococcus faecalis strain MC02152); assay: cell-based or functional assay
[7] = target: Ace of E. faecalis strain V583 (native; on cells and in mutanolysin extracts) (Enterococcus faecalis strain V583); assay: cell-based or functional assay
[8] = target: Ace of E. faecalis strain OG1RF (native; on 46°C grown cells and in mutanolysin extracts) (Enterococcus faecalis strain OG1RF); assay: cell-based or functional assay; remark: listed apart in the source
Collagen type I (CI) = assay: ELISA, 10 µg immobilised CI, bound His-tagged Ace A detected with penta-His monoclonal antibody, OD450
[9] = target: Mouse laminin (isolated from the EHS-sarcoma) (mouse) (UniProt P19137); assay: ELISA, 10 µg immobilised LN, bound His-tagged Ace A detected with penta-His monoclonal antibody, OD450
[10] = target: T1, Bovine Type I collagen (Collagen Corp.), immobilised on a CM5 chip (bovine, UniProt P02453 162-1217; P02465 80-1117); assay: SPR (BIAcore 1000), Scatchard analysis of equilibrium responses, 1-70 µM Ace A over immobilised collagen; three measurements
T1 construct: Bought, predissolved in 0.1 M HCl

[11] = target: Mouse laminin (isolated from the EHS-sarcoma) (mouse, UniProt P19137 25-3083; P02469 22-1786; P02468 34-1607); assay: cell-based or functional assay

Chain of Bovine serum albumin (BSA) (bovine) (P02769 25-607 limits assumed): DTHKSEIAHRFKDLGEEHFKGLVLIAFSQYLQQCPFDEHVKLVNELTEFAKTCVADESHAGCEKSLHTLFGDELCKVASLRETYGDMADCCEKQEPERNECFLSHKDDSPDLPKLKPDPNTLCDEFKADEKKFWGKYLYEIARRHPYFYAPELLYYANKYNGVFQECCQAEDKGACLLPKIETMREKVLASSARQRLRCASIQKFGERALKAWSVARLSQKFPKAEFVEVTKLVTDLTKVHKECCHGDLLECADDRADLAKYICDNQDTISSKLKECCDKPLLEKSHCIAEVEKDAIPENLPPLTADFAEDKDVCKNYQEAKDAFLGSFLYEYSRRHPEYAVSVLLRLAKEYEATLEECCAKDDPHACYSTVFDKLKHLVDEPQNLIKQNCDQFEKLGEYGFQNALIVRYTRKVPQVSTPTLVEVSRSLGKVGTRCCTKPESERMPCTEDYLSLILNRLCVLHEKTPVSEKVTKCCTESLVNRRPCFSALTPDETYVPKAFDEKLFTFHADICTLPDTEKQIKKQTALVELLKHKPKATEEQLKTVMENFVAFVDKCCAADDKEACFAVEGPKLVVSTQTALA
T1 sequence (P02453 162-1217 limits assumed, chain 1 of 2): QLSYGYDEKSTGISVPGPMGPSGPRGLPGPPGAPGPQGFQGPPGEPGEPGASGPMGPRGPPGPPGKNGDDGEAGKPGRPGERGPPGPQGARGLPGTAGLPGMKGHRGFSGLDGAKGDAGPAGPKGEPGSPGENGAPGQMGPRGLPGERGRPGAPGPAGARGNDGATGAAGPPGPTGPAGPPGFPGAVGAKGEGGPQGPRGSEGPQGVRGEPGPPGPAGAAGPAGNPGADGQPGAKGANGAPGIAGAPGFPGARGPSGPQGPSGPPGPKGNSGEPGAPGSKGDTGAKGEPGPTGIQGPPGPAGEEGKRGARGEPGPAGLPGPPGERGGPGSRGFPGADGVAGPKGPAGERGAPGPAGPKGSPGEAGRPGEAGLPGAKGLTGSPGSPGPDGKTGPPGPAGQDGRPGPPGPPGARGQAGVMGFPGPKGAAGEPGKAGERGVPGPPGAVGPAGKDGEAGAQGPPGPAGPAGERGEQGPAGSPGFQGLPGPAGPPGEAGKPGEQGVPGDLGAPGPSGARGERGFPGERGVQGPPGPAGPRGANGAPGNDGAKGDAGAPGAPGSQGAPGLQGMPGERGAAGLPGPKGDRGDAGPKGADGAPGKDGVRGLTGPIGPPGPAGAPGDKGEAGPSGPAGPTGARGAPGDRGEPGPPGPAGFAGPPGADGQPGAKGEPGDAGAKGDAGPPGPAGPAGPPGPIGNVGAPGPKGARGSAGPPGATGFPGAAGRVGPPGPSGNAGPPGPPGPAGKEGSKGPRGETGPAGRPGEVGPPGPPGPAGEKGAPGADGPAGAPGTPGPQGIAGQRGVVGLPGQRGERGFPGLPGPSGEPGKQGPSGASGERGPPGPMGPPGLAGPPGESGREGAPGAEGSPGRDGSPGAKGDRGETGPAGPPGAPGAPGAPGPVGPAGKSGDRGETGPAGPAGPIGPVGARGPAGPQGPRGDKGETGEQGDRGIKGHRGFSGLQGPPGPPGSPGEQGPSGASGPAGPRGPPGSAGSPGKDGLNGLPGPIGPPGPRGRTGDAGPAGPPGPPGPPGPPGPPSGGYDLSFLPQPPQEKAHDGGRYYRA
T1 sequence (P02465 80-1117 limits assumed, chain 2 of 2): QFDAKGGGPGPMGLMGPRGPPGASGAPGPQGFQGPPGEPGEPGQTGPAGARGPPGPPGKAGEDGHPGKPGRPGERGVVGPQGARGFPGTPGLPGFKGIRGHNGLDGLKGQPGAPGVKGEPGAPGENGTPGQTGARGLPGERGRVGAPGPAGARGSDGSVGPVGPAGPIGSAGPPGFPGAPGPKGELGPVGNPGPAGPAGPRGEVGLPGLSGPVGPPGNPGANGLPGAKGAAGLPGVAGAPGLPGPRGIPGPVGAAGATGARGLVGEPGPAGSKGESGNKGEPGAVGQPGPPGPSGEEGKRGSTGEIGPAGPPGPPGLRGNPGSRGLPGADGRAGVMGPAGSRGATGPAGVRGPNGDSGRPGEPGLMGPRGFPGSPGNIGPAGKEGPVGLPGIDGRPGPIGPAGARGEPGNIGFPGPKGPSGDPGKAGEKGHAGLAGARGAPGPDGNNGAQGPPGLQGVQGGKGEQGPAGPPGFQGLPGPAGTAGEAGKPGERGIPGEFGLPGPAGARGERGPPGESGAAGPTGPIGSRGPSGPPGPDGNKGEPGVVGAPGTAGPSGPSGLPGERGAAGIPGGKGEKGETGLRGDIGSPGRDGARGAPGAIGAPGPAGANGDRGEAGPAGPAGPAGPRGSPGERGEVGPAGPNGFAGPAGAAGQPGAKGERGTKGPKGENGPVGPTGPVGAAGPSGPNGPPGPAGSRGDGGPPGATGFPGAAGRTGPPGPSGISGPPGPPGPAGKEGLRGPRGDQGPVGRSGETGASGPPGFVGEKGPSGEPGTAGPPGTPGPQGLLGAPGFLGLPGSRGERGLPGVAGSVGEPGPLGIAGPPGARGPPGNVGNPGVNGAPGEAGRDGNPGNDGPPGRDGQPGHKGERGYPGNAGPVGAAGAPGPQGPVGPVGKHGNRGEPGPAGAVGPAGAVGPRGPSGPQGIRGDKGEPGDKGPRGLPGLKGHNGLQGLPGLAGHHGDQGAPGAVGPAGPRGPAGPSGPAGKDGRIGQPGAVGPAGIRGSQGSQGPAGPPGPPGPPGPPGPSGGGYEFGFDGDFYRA

Ace of E. faecalis strain END6 (mutanolysin extract)
% adherence of 46°C grown END6 to CIV (Collagen type IV (CIV) [1]): > 20% | % adherence of 46°C grown END6 to LN [2]: > 20%

Ace of E. faecalis strain JH2-2 (mutanolysin extract)
% adherence of 46°C grown JH2-2 to CIV (Collagen type IV (CIV) [1]): > 20% | % adherence of 46°C grown JH2-2 to LN [2]: > 20%

Ace of E. faecalis strain MC02152 (native; on cells and in mutanolysin extracts)
% adherence of 46°C grown MC02152 to CIV (Collagen type IV (CIV) [1]): > 20% | % of 37°C grown MC02152 cells bound to CIV (Collagen type IV (CIV) [1]): 8.9% | % of 46°C grown MC02152 cells bound to CIV (Collagen type IV (CIV) [1]): 38% | % of MC02152 cells bound to CIV; no IgG (% of cells bound) (Collagen type IV (CIV) [1]): 27.7 | % of MC02152 cells bound to BSA; no IgG (% of cells bound) [3]: 0.6 | % adherence of 46°C grown MC02152 to LN [2]: > 20% | % of 37°C grown MC02152 cells bound to LN [2]: 7.1% | % of 46°C grown MC02152 cells bound to LN [2]: 41% | % of MC02152 cells bound to LN; no IgG (% of cells bound) [2]: 26.7

Ace of E. faecalis strain MD9 (mutanolysin extract)
% adherence of 46°C grown MD9 to CIV (Collagen type IV (CIV) [1]): > 20% | % adherence of 46°C grown MD9 to LN [2]: > 20%

Ace of E. faecalis strain OG1RF (native; on 46°C grown cells and in mutanolysin extracts)
% of OG1RF cells bound to CIV; no IgG (% of cells bound) (Collagen type IV (CIV) [1]): 27.7 | fold decrease of adherence to CIV in ace mutant TX5256 against OG1RF (Collagen type IV (CIV) [1]): 27.4 fold | % of OG1RF cells bound to CIV; no IgG (% of cells bound) (Collagen type IV (CIV) [4]): 29.6

Ace of E. faecalis strain V583 (native; on cells and in mutanolysin extracts)
% adherence of 46°C grown V583 to CIV (Collagen type IV (CIV) [1]): > 20% | % of V583 cells bound to CIV; no IgG (% of cells bound) (Collagen type IV (CIV) [1]): 38.1 | % of V583 cells bound to BSA; no IgG (% of cells bound) [3]: 0.7 | % adherence of 46°C grown V583 to LN [2]: > 20% | % of V583 cells bound to LN; no IgG (% of cells bound) [2]: 29.4

IgGs purified from pooled normal human sera collected from healthy volunteers (antibody)
% of OG1RF cells bound to BSA; NHS IgG 0.1 mg/ml (% of cells bound) [5]: 0.9 | % of OG1RF cells bound to BSA; NHS IgG 1 mg/ml (% of cells bound) [5]: 0.7 | % of OG1RF cells bound to BSA; NHS IgG 2 mg/ml (% of cells bound) [5]: 0.7 | % of OG1RF cells bound to BSA; NHS IgG 4 mg/ml (% of cells bound) [5]: 0.8 | % of OG1RF cells bound to CIV; NHS IgG 0.1 mg/ml (% of cells bound) [5]: 24.8 | % of OG1RF cells bound to CIV; NHS IgG 1 mg/ml (% of cells bound) [5]: 25.6 | % of OG1RF cells bound to CIV; NHS IgG 2 mg/ml (% of cells bound) [5]: 24 | % of OG1RF cells bound to CIV; NHS IgG 4 mg/ml (% of cells bound) [5]: 25.6 | % of OG1RF cells bound to LN; NHS IgG 0.1 mg/ml (% of cells bound) [5]: 31.5 | % of OG1RF cells bound to LN; NHS IgG 1 mg/ml (% of cells bound) [5]: 31.3 | % of OG1RF cells bound to LN; NHS IgG 2 mg/ml (% of cells bound) [5]: 31.3 | % of OG1RF cells bound to LN; NHS IgG 4 mg/ml (% of cells bound) [5]: 31.4

Preimmune rabbit serum and IgGs purified from it (Example 2) (antibody)
% of MC02152 cells bound to BSA; PI IgG 20 µg/ml (% of cells bound) [6]: 0.5 | % of MC02152 cells bound to CIV; PI IgG 20 µg/ml (% of cells bound) [6]: 26.5 | % of MC02152 cells bound to LN; PI IgG 20 µg/ml (% of cells bound) [6]: 23.5 | % of V583 cells bound to BSA; PI IgG 20 µg/ml (% of cells bound) [7]: 0.6 | % of V583 cells bound to CIV; PI IgG 20 µg/ml (% of cells bound) [7]: 33.6 | % of V583 cells bound to LN; PI IgG 20 µg/ml (% of cells bound) [7]: 27.6 | % of OG1RF cells bound to BSA; PI IgG 0.001 µg/ml (% of cells bound) [8]: 0.7 | % of OG1RF cells bound to BSA; PI IgG 0.01 µg/ml (% of cells bound) [8]: 0.1 | % of OG1RF cells bound to BSA; PI IgG 0.1 µg/ml (% of cells bound) [8]: 0.6 | % of OG1RF cells bound to BSA; PI IgG 1 µg/ml (% of cells bound) [8]: 0.8 | % of OG1RF cells bound to BSA; PI IgG 10 µg/ml (% of cells bound) [8]: 0.6 | % of OG1RF cells bound to BSA; PI IgG 100 µg/ml (% of cells bound) [8]: 0.6 | % of OG1RF cells bound to CIV; PI IgG 0.001 µg/ml (% of cells bound) [8]: 30.3 | % of OG1RF cells bound to CIV; PI IgG 0.01 µg/ml (% of cells bound) [8]: 28.8 | % of OG1RF cells bound to CIV; PI IgG 0.1 µg/ml (% of cells bound) [8]: 28.9 | % of OG1RF cells bound to CIV; PI IgG 1 µg/ml (% of cells bound) [8]: 25.9 | % of OG1RF cells bound to CIV; PI IgG 10 µg/ml (% of cells bound) [8]: 26.6 | % of OG1RF cells bound to CIV; PI IgG 100 µg/ml (% of cells bound) [8]: 26 | % of OG1RF cells bound to LN; PI IgG 0.001 µg/ml (% of cells bound) [8]: 30.2 | % of OG1RF cells bound to LN; PI IgG 0.01 µg/ml (% of cells bound) [8]: 31.4 | % of OG1RF cells bound to LN; PI IgG 0.1 µg/ml (% of cells bound) [8]: 29.1 | % of OG1RF cells bound to LN; PI IgG 1 µg/ml (% of cells bound) [8]: 26.4 | % of OG1RF cells bound to LN; PI IgG 10 µg/ml (% of cells bound) [8]: 28.3 | % of OG1RF cells bound to LN; PI IgG 100 µg/ml (% of cells bound) [8]: 32

Recombinant Ace A domain of E. faecalis OG1RF (His-tagged, pBAD/HisA, TX5254)
EC50 (read off the curve) (Collagen type I (CI)): 10 µM | EC50 (read off the curve) [9]: 7 µM

B1: Recombinant E. faecalis EF1 Ace A domain (N-terminal His6-tag fusion, from pQE-30) (other)
chain: MRGSHHHHHHGSELSKSSIVDKVELDHTTLYQGEMTSIKVSFSDKENQKIKPGDTITLTLPDELVGMTENDGSPRKINLNGLGEVFIYKDHVVATFNEKVESLHNVNGHFSFGIKTLITNSSQPNVIETDFGTATATQRLTIEGVTNTETGQIERDYPFFYKVGDLAGESNQVRWFLNVNLNKSDVTEDISIADRQGSGQQLNKESFTFDIVNDKETKYISLAEFEQQGYGKIDFVTDNDFNLRFYRDKARFTSFIVRYTSTITEAGQHQATFENSYDINYQLNNQDATNEKNTSQVKNVFVEGEASGNQNVEMPTEESLDIPLETIEEWEPKTPTSEQATETSEKTD
notes: Residues 32-367 are counted from nucleotides 94-1101; also called recombinant Ace A domain
Kd [10]: 48 µM

B2: Ace of E. faecalis strain OG1RF (native; on 46°C grown cells and in mutanolysin extracts) (other)
chain: ELSKSSIVDKVELDHTTLYQGEMTSIKVSFSDKENQKIKPGDTITLTLPDALVGMTENDGSPRKINLNGLGEVFIYKDHVVATFNEKVESLHNVNGHFSFGIKTLITNSSQPNVIETDFGTATATQRLTIEGVTNTETGQIERDYPFFYKVGDLAGESNQVRWFLNVNLNKSDVTEDISIADRQGSGQQLNKESFTFDIVNDKETKYISLAEFEQQGYGKIDFVTDNDFNLRFYRNKARFTSFIVRYTSTITEAGQHQATFENSYDINYQLNNQDATNEKNTSQVKNVFVEGEASGNQNVEMPTEESLDIPLETIDEWEPKTPTSEQATETSEKTGATETAESSQPEVHVSPTEEENPDEGGTLGTIEPIIPEKPSVTTEENGVTETAEGSQPEVHVSPTEEENPDESETLGTITPIIPEKPSVTTEENGVTETAEGSQPEVHVSPTEEENPDESETLGTITPIIPEKPSVTTEENGATETAESSQPEVHVSPAEEENPDESETLGTITPIIPEKPSVTTEENGTTETAESSQPEVHVSPTEEENLDESETLGTIEPIIPEKPSVTTEENGTTETAESSQPEVHVSPTKEITTTEKKQPSTETTVEKNKNVTSKNQPQILNAPLNTVKNEGSPQLAPQLLSEPIQKLNEANGQRELPKT
fold decrease of adherence to LN in ace mutant TX5256 against OG1RF [11]: 32.9 fold

Source: US6908994 (TEXAS A AND M UNIVERSITY SYSTEM, dated 2005)
